Test results taken from US20080038256A1 (SEOUL NATIONAL UNIVERSITY INDUSTRY FOUNDATION, published 2008).

Tests used:
[1] = biological target: T1, HGF/SF (hepatocyte growth factor/scatter factor) (UniProt P14210 32-728, limits assumed); test: competition ELISA: HGF/SF coated on the plate, cMET/Fc chimera as the blocked ligand mixed with the varied Fab, bound cMET/Fc detected with HRP anti-human Fc, Abs. at 450 nm, triplicates
Procedure: A 96-well microplate was coated with 1 μg/ml of HGF/SF and blocked by repeating the procedure of (2-2) of Example 2. Then 25 μl of 2 nM cMET/Fc chimera (R&D systems, USA) mixed with 25 μl of 0 to 200 nM HSFN 68-13 or SFN 68 dissolved in TBSB was added to the HGF/SF coated wells. The plate was incubated for at 37° C. 1 hour and washed with TBS-T. The amount of bound cMET/Fc chimera was assessed with HRP-conjugated rabbit anti-human Fc specific IgG (Pierce) using ultra-TMB substrate solution (Pierce) as a substrate. After 30 min incubation, optical density was measured at 450 nm. All experiments were performed in triplicates, and the average and standard deviation of the optical densities are listed in FIG. 5.

[2] = biological target: T1, HGF/SF (hepatocyte growth …); test: SPR (BIAcore), HGF/SF immobilized
Procedure: (§1) The binding affinity of the anti-HGF/SF Fab humanized antibody to HGF/SF was determined by SPR (Surface plasmon Resonance) on a BIAcore device (BIAcore, Sweden).
(§2) Specifically, HGF/SF was immobilized on a carboxymethyldextran-modified (CM5) sensor chip (Biacore AB) using 10 mM sodium acetate buffer (pH 4.0) at a flow rate of 5 μl/min with an amine coupling kit (Biacore AB) in accordance with the instruction of the kit. Then 4 anti-HGF/SF Fabs and SFN 68 as a control dissolved in phosphate buffered saline (PBS, pH 7.4) containing 0.005% Tween 20 (Sigma) was injected on the chip at 25° C. for 2 min at a flow rate of 30 μl/min, respectively. The anti-HGF/SF Fab humanized antibody was diluted to a varying concentration in the range of 1.25 to 200 nM. The surface was regenerated with 1 M NaCl/50 mM NaOH. The kinetic rate constants (kₒₙ and koff) as well as the equilibrium dissociation constant (KD) were determined by using BIA evaluation software.

[3] = biological target: T1, HGF/SF (hepatocyte growth …); test: affinity examination of the HSFN 68 clones on HGF/SF, reference SFN68; method not named in this paragraph
[4] = biological target: T1, HGF/SF (hepatocyte growth …); test: SPR (BIAcore), HGF/SF immobilized on CM5 chip, Fab injected
Procedure: as §1, §2

T1 sequence (P14210 32-728 limits assumed): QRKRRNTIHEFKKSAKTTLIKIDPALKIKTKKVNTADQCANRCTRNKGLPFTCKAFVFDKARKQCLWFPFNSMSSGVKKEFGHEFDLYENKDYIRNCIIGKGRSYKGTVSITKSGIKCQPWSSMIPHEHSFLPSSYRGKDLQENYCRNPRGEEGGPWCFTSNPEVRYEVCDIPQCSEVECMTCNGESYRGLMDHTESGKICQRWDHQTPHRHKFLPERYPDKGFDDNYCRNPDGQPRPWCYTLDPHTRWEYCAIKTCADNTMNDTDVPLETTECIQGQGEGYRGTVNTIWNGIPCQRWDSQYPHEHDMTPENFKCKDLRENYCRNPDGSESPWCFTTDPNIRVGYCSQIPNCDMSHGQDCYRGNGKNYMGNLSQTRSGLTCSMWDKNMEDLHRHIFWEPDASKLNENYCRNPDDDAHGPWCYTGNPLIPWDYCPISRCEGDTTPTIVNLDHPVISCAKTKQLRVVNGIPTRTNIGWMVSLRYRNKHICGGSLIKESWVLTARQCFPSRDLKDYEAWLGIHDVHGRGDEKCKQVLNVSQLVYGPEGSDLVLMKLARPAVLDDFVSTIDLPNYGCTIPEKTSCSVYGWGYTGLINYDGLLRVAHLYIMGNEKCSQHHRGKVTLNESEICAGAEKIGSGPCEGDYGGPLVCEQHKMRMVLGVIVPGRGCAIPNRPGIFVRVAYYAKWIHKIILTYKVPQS

Binder | IC50 (read off the curve) [1] [nM] | fold tighter affinity than SFN68 control [2] [fold] | fold higher affinity than SFN68 [3] [fold] | Kd [4] [nM] | kon [4] [M⁻¹ s⁻¹]
HSFN 68-16 Fab (Fab, V domains shown, Fab with human Ckappa and human CH1, expressed from pComb3X in E. coli HB2151) VH: QQQLVESGGGLVQPGGSLRLSCAASGFTFSTYYMSWIRQAPGKGLEWIGYIGTSSGTTYYANSVKGRFTISSDNAQNSVYLQMNSLRPEDTAVYYCARGLGRINLWGQGTLVTVSS VL: ELVMTQSPSTLSASVGDRVTITCRASQSISSWLAWYQQKPGKAPKLLIYKASTLESGVSSRFSGGGSGTEFTLTISSLQPDDFATYYCQQYSRYSGGTFGQGTKVEIRR |  |  |  | 43.1 | 32400
HSFN 68-41 Fab (Fab, V domains shown, Fab with human Ckappa and human CH1, expressed from pComb3X in E. coli HB2151) VH: QQQLVESGGGLVQPGGSLRLSCAASGFTFSTYYMSWVRQAPGKGLEWVGYIGTSSGTTYYANSVKGRFTISSDNAKNSVYLQMNSLRPEDTAVYYCARGLGRINLWGQGTLVTVSS VL: ELQMTQSPSSVSASVGDRVTISCRASQDIRSLLAWYQQKPGKAPKLLIYKASTLESGVPSRFSGSGSGTEFTLTISNLQPDDFATYYCQQYSRYSGGTFGQGTKVEIRR |  |  |  | 10.6 | 106000

These reach a lower Kd [4]. Values come first.

IC50 (read off the curve) [1] [nM] | fold tighter affinity than SFN68 control [2] [fold] | fold higher affinity than SFN68 [3] [fold] | Kd [4] [nM] | kon [4] [M⁻¹ s⁻¹] | Binder
~2 | ~6 | ~6 | 2.09 | 647000 | HSFN 68-13 Fab (Fab, V domains shown, also called anti-HGF/SF Fab humanized antibody) VH: QQQLVESGGGVVRPGGSLRLSCAASGFTFSTYYMSWVRQAPGKGLEWIGYIGTSSGTTYYANSVKGRFTISSDNAKNSVYLQMNSLRPEDTAVYYCARGLGRINLWGPGTLVTVSS VL: ELQMTQSPSSLSASVGDRVTITCRASQSISTWLAWYQQKPGKAPKLLIYKASTLESGVPLRFSGGGSGTDFTLTISSLQSEDFATYFCQQSYSLPPTFGQGTKVEVKR
 |  |  | 5.27 | 392000 | HSFN 68-27 Fab (Fab, V domains shown, Fab with human Ckappa and human CH1, expressed from pComb3X in E. coli HB2151) VH: QVQLVESGGGLVKPGGSRRLSCAASGFTFSTYYMSWVRQAPGKGLEWIGYIGTSSGTTYYANSVKGRFTISSDNAQNSVYLQMNSLRPEDTAVYYCARGLGRINLWGQGTLVTVSS VL: ELQMTQSPSTLSASVGDRVTITCRASQSISSRLAWYQQKPGKAPKLLIYRASTLEGGVPSRFSGSGSGTEFTLTISGLQPDDFATYYCQQYSTFSPTFGQGTQVDIKR
